Test results: the supplement of paper PMC11246515
± gives the standard deviation of the averaged measurements.

Assay: total protein half-life in vivo (active degradation + dilution); higher = more stable protein
[1] = E. coli NCM3722 delta-clpP delta-lon delta-hslV, growth: N-lim chemostat, doubling time 6 h
[2] = E. coli NCM3722 delta-clpP, growth: N-lim chemostat, doubling time 6 h
[3] = E. coli NCM3722 delta-hslV, growth: N-lim chemostat, doubling time 6 h
[4] = E. coli NCM3722 delta-lon, growth: N-lim chemostat, doubling time 6 h
[5] = E. coli NCM3722 delta-smpB, growth: N-lim chemostat, doubling time 6 h
[6] = wild type E. coli NCM3722, growth: C-lim chemostat, doubling time 3 h
[7] = wild type E. coli NCM3722, growth: C-lim chemostat, doubling time 6 h
[8] = wild type E. coli NCM3722, growth: C-lim chemostat, doubling time 12 h
[9] = wild type E. coli NCM3722, growth: N-lim chemostat, doubling time 6 h
[10] = wild type E. coli NCM3722, growth: N-lim chemostat, doubling time 12 h
[11] = wild type E. coli NCM3722, growth: P-lim chemostat, doubling time 6 h
[12] = wild type E. coli NCM3722, growth: P-lim chemostat, doubling time 12 h

| Sequence | total protein half-life in vivo [1] [h] | total protein half-life in vivo [2] [h] | total protein half-life in vivo [3] [h] | total protein half-life in vivo [4] [h] | total protein half-life in vivo [5] [h] | total protein half-life in vivo [6] [h] | total protein half-life in vivo [7] [h] | total protein half-life in vivo [8] [h] | total protein half-life in vivo [9] [h] | total protein half-life in vivo [10] [h] | total protein half-life in vivo [11] [h] | total protein half-life in vivo [12] [h] |
| --- | --- | --- | --- | --- | --- | --- | --- | --- | --- | --- | --- | --- |
| MYPVDLHMHTVASTHAYSTLSDYIAQAKQKGIKLFAITDHGPDMEDAPHHWHFINMRIWPRVVDGVGILRGIEANIKNVDGEIDCSGKMFDSLDLIIAGFHEPVFAPHDKATNTQAMIATIASGNVHIISHPGNPKYEIDVKAVAEAAAKHQVALEINNSSFLHSRKGSEDNCREVAAAVRDAGGWVALGSDSHTAFTMGEFEECLKILDAVDFPPERILNVSPRRLLNFLESRGMAPIAEFADL | 4.97 ± 0.41 | 4.01 ± 0.17 | 3.945 ± 0.0077 | 4.67 ± 0.18 | 3.925 ± 0.00062 | 3.11 ± 0.53 | 4.99 ± 0.23 | 9.55 ± 1.1 | 4.04 ± 0.4 | 6.47 ± 0.46 | 5.73 ± 0.19 | 11.9 ± 0.49 |
| MLKRFFITGTDTSVGKTVVSRALLQALASQGKTVAGYKPVAKGSKETPEGLRNKDALVLQSVSTIELPYEAVNPIALSEEESSVAHSCPINYTLISNGLANLTEKVDHVVVEGTGGWRSLMNDLRPLSEWVVQEQLPVLMVVGIQEGCINHALLTAQAIANDGLPLIGWVANRINPGLAHYAEIIDVLGKKLPAPLIGELPYLPRAEQRELGQYIRLAMLRSVLAVDRVTV [P0A6E9] |  | 5.16 ± 1 | 2 ± 0.11 | 2.48 | 2.11 ± 0.046 | 2.11 ± 0.37 |  | 4.99 ± 0.23 |  | 3.5 ± 0.4 |  | 5.74 ± 0.84 |
| MEFSFSPKRLVVAVAAALPLMASAADTPSTATARKGFAGYDHPNQYLVKPATTIADNMMPVMQHPAQDKETQQKLAELEKKTGKKPNVVVFLLDDVGWMDVGFNGGGVAVGNPTPDIDAVASQGLILTSAYSQPSSSPTRATILTGQYSIHHGILMPPMYGQPGGLQGLTTLPQLLHDQGYVTQAIGKWHMGENKESQPQNVGFDDFRGFNSVSDMYTEWRDVHVNPEVALSPDRSEYIKQLPFSKDDVHAVRGGEQQAIADITPKYMEDLDQRWMDYGVKFLDKMAKSDKPFFLYYGTRGCHFDNYPNAKYAGSSPARTSYGDCMVEMNDVFANLYKTLEKNGQLDNTLIVFTSDNGPEAEVPPHGRTPFRGAKGSTWEGGVRVPTFVYWKGMIQPRKSDGIVDLADLFPTALDLAGHPGAKVANLVPKTTFIDGVDQTSFFLGTNGQSNRKAEHYFLNGKLAAVRMDEFKYHVLIQQPYAYTQSGYQGGFTGTVMQTAGSSVFNLYTDPQESDSIGVRHIPMGVPLQTEMHAYMEILKKYPPRAQIKSD |  |  |  |  |  |  |  |  | 3.56 |  |  |  |
| MAQVINTNSLSLITQNNINKNQSALSSSIERLSSGLRINSAKDDAAGQAIANRFTSNIKGLTQAARNANDGISVAQTTEGALSEINNNLQRVRELTVQATTGTNSESDLSSIQDEIKSRLDEIDRVSGQTQFNGVNVLAKNGSMKIQVGANDNQTITIDLKQIDAKTLGLDGFSVKNNDTVTTSAPVTAFGATTTNNIKLTGITLSTEAATDTGGTNPASIEGVYTDNGNDYYAKITGGDNDGKYYAVTVANDGTVTMATGATANATVTDANTTKATTITSGGTPVQIDNTAGSATANLGAVSLVKLQDSKGNDTDTYALKDTNGNLYAADVNETTGAVSVKTITYTDSSGAASSPTAVKLGGDDGKTEVVDIDGKTYDSADLNGGNLQTGLTAGGEALTAVANGKTTDPLKALDDAIASVDKFRSSLGAVQNRLDSAVTNLNNTTTNLSEAQSRIQDADYATEVSNMSKAQIIQQAGNSVLAKANQVPQQVLSLLQG | > 8 |  | > 8 | > 8 | > 8 | 0.717 ± 0.2 | 0.724 ± 0.37 | 0.956 ± 0.59 | 6.3 ± 0.12 |  | > 8 | > 16 |
| MKPLSSPLQQYWQTVVERLPEPLAEESLSAQAKSVLTFSDFVQDSVIAHPEWLTELESQPPQADEWQHYAAWLQEALCNVSDEAGLMRELRLFRRRIMVRIAWAQTLALVTEESILQQLSYLAETLIVAARDWLYDACCREWGTPCNAQGEAQPLLILGMGKLGGGELNFSSDIDLIFAWPEHGCTQGGRRELDNAQFFTRMGQRLIKVLDQPTQDGFVYRVDMRLRPFGESGPLVLSFAALEDYYQEQGRDWERYAMVKARIMGDSEGVYANELRAMLRPFVFRRYIDFSVIQSLRNMKGMIAREVRRRGLTDNIKLGAGGIREIEFIVQVFQLIRGGREPSLQSRSLLPTLSAIAELHLLSENDAEQLRVAYLFLRRLENLLQSINDEQTQTLPSDELNRARLAWAMDFADWPQLTGALTAHMTNVRRVFNELIGDDESETQEESLSEQWRELWQDALQEDDTTPVLAHLSEDDRKQVLTLIADFRKELDKRTIGPRGRQVLDHLMPHLLSDVCAREDAAVTLSRITALLVGIVTRTTYLELLSEFPAALKHLISLCAASPMIASQLARYPLLLDELLDPNTLYQPTATDAYRDELRQYLLRVPEDDEEQQLEALRQFKQAQLLRIAAADIAGTLPVMKVSDHLTWLAEAMIDAVVQQAWVQMVARYGKPNHLNEREGRGFAVVGYGKLGGWELGYSSDLDLIFLHDCPMDAMTDGEREIDGRQFYLRLAQRIMHLFSTRTSSGILYEVDARLRPSGAAGMLVTSAEAFADYQKNEAWTWEHQALVRARVVYGDPQLTAHFDAVRREIMTLPREGKTLQTEVREMREKMRAHLGNKHRDRFDIKADEGGITDIEFITQYLVLRYAHEKPKLTRWSDNVRILELLAQNDIMEEQEAMALTRAYTTLRDELHHLALQELPGHVSEDCFTAERELVRASWQKWLVEE | 4.99 ± 0.16 | 4.75 ± 0.75 | 4.215 ± 0.0047 | 5.2 ± 0.75 | 4.64 ± 0.27 | 3.414 ± 0.027 | 6.65 ± 1.2 | 12.9 ± 0.85 | 4.22 ± 0.24 | 7.85 ± 0.1 | 6.33 ± 0.28 | 13.3 ± 1.3 |
| MNLQRFDDSTLIRIFALHELHRLKEHGLTRGALLDYHSRYKLVFLAHSQPEYRKLGPFVADIHQWQNLDDYYNQYRQRVVVLLSHPANPRDHTNVLMHVQGYFRPHIDSTERQQLAALIDSYRRGEQPLLAPLMRIKHYMALYPDAWLSGQRYFELWPRVINLRHSGVL | 5.09 ± 0.47 | 4.66 ± 0.34 | 4.914 ± 0.015 | 5.47 ± 0.14 | 4.55 ± 0.27 |  | 5.12 | 11.2 | 4.54 ± 0.59 | 7.5 ± 0.48 | 5.11 ± 0.081 | 12 ± 0.13 |
| MHPRFQTAFAQLADNLQSALEPILADKYFPALLTGEQVSSLKSATGLDEDALAFALLPLAAACARTPLSNFNVGAIARGVSGTWYFGANMEFIGATMQQTVHAEQSAISHAWLSGEKALAAITVNYTPCGHCRQFMNELNSGLDLRIHLPGREAHALRDYLPDAFGPKDLEIKTLLMDEQDHGYALTGDALSQAAIAAANRSHMPYSKSPSGVALECKDGRIFSGSYAENAAFNPTLPPLQGALILLNLKGYDYPDIQRAVLAEKADAPLIQWDATSATLKALGCHSIDRVLLA [P0ABF6] | 5.28 ± 0.35 | 5.6 ± 0.071 | 6 ± 1.1 | 6.28 ± 0.78 | 4.89 ± 0.18 |  | 6.09 ± 0.4 | 10.7 ± 0.78 | 5.04 ± 0.077 | 8.624 ± 0.078 | 5.88 ± 0.059 | 11.7 ± 0.35 |
